This data set has as its system PTP1B. The data set can be described thus: Phosphatase activity of PTP1B constructs against pNPP (enzyme assay). It counts as biochemical, human. The note with it: pNPP substrate. Here is the method: Phosphatase activity of PTP1B against the general PTP/DUSP substrate, p-nitrophenyl phosphate (pNPP), was tested in 50 mM HEPES pH 7.5, 150 mM NaCl, 0.5 mM TCEP. 40 μl of enzyme at a 1.5 μM concentration was added to 60 μl of pNPP substrate resuspended in the reaction buffer. See, FIG. 25. The final concentrations of pNPP used in this experiment were […]. The enzyme was incubated with the substrate at 30° C. for 30 min, after which 100 μl of 1 M NaOH was added to a final concentration of 0.5 M NaOH to quench the reaction. Absorbance was measured at 405 nm and the final concentration of p-nitrophenol (pNP) was calculated using the molar extinction coefficient of 18000 M-1 cm-1. A control reaction in which substrate was incubated in the absence of enzyme was subtracted from all other experimental values. All experiments were performed in triplicate.
Enzyme assays were performed at pH 7.5 with 0.15 μM PTP1B to compare the activities of wild-type PTP1B1-301 to mutants with mutations in the L11 loop: PTP1BY152A/F, PTP1BY153A/F, and PTP1BYAYA. See, FIG. 17. […] Ibid. […] Ibid. […] Ibid. […] Ibid. […] Ibid. […] Ibid.
Enzyme assays were performed at pH 7.5 with 0.015 μM PTP1B to compare the activities of wild-type PTP1B1-301 to mutants with mutations in the α3 helix such as PTP1BN193A. See, FIG. 27. […] Ibid. […] Ibid. […] Ibid. […] Ibid. […] Ibid. […] Ibid.
An enzyme assay was used to compare the activity of wild-type PTP1B1-301 to the activity of PTP1B1-284 P185G. See, FIG. 15. Enzyme assays were performed at pH 7.5 with 0.015 μM PTP1B to compare the activities of wild-type PTP1B1-301 to mutants with mutations in the α7 helix. See, FIG. 32A. In one embodiment, these point mutations were made in an amino acid sequence substantially similar to SEQ ID NO: 2.

Setting [1] is: pH 7.5, 0.015 μM PTP1B (FIG. 27, 32A, 32B).
Where [2] appears, read: pH 7.5, 0.15 μM PTP1B (FIG. 17).

The term Km denotes the concentration of substrate that gives half-maximal velocity. What is called kcat is the maximal rate divided by the concentration of active sites.

B1: PTP1BY153F: PTP1B1-301 mutant with mutation in the L11 loop (protein, UniProt P18031 1-301, looked up, variant Y153F)
chain: MEMEKEFEQIDKSGSWAAIYQDIRHEASDFPCRVAKLPKNKNRNRYRDVSPFDHSRIKLHQEDNDYINASLIKMEEAQRSYILTQGPLPNTCGHFWEMVWEQKSRGVVMLNRVMEKGSLKCAQYWPQKEEKEMIFEDTNLKLTLISEDIKSYFTVRQLELENLTTQETREILHFHYTTWPDFGVPESPASFLNFLFKVRESGSLSPEHGPVVVHCSAGIGRSGTFCLADTCLLLMDKRKDPSSVDIKKVLLEMRKFRMGLIQTADQLRFSYLAVIEGAKFIMGDSSVQDQWKELSHEDLEP
Regarding B1, under setting [1], the Km is 620 ± 70 µM and the kcat came to 6.0 ± 0.2 s⁻¹. In addition, under setting [2], the Km turned out to be 900 ± 80 µM and the kcat was 3.4 ± 0.3 s⁻¹.

B2: PTP1BL195A: PTP1B1-301 mutant with mutation in the α3 helix (protein, UniProt P18031 1-301, looked up, variant L195A)
chain: MEMEKEFEQIDKSGSWAAIYQDIRHEASDFPCRVAKLPKNKNRNRYRDVSPFDHSRIKLHQEDNDYINASLIKMEEAQRSYILTQGPLPNTCGHFWEMVWEQKSRGVVMLNRVMEKGSLKCAQYWPQKEEKEMIFEDTNLKLTLISEDIKSYYTVRQLELENLTTQETREILHFHYTTWPDFGVPESPASFLNFAFKVRESGSLSPEHGPVVVHCSAGIGRSGTFCLADTCLLLMDKRKDPSSVDIKKVLLEMRKFRMGLIQTADQLRFSYLAVIEGAKFIMGDSSVQDQWKELSHEDLEP
Consider B2, for which, under setting [1], the Km amounted to 290 ± 30 µM and the kcat was determined as 4.1 ± 0.1 s⁻¹.

B3: PTP1BS190A: PTP1B1-301 mutant with mutation in the α3 helix (protein, UniProt P18031 1-301, looked up, variant S190A)
chain: MEMEKEFEQIDKSGSWAAIYQDIRHEASDFPCRVAKLPKNKNRNRYRDVSPFDHSRIKLHQEDNDYINASLIKMEEAQRSYILTQGPLPNTCGHFWEMVWEQKSRGVVMLNRVMEKGSLKCAQYWPQKEEKEMIFEDTNLKLTLISEDIKSYYTVRQLELENLTTQETREILHFHYTTWPDFGVPESPAAFLNFLFKVRESGSLSPEHGPVVVHCSAGIGRSGTFCLADTCLLLMDKRKDPSSVDIKKVLLEMRKFRMGLIQTADQLRFSYLAVIEGAKFIMGDSSVQDQWKELSHEDLEP
In the case of B3, under setting [1], the Km was determined as 370 ± 50 µM and the catalytic constant (kcat) came to 6.1 ± 0.3 s⁻¹.

B4: PTP1BK292A: PTP1B1-301 mutant with point mutation in the α7 helix (protein, UniProt P18031 1-301, looked up, variant K292A)
chain: MEMEKEFEQIDKSGSWAAIYQDIRHEASDFPCRVAKLPKNKNRNRYRDVSPFDHSRIKLHQEDNDYINASLIKMEEAQRSYILTQGPLPNTCGHFWEMVWEQKSRGVVMLNRVMEKGSLKCAQYWPQKEEKEMIFEDTNLKLTLISEDIKSYYTVRQLELENLTTQETREILHFHYTTWPDFGVPESPASFLNFLFKVRESGSLSPEHGPVVVHCSAGIGRSGTFCLADTCLLLMDKRKDPSSVDIKKVLLEMRKFRMGLIQTADQLRFSYLAVIEGAKFIMGDSSVQDQWAELSHEDLEP
Turning to B4, under setting [1], the Km is 380 ± 50 µM and the turnover number (kcat) is 6.1 ± 0.3 s⁻¹.

B5: PTP1BE297A: PTP1B1-301 mutant with point mutation in the α7 helix (protein, UniProt P18031 1-301, looked up, variant E297A)
chain: MEMEKEFEQIDKSGSWAAIYQDIRHEASDFPCRVAKLPKNKNRNRYRDVSPFDHSRIKLHQEDNDYINASLIKMEEAQRSYILTQGPLPNTCGHFWEMVWEQKSRGVVMLNRVMEKGSLKCAQYWPQKEEKEMIFEDTNLKLTLISEDIKSYYTVRQLELENLTTQETREILHFHYTTWPDFGVPESPASFLNFLFKVRESGSLSPEHGPVVVHCSAGIGRSGTFCLADTCLLLMDKRKDPSSVDIKKVLLEMRKFRMGLIQTADQLRFSYLAVIEGAKFIMGDSSVQDQWKELSHADLEP
Regarding B5, under setting [1], the Km was determined as 720 ± 120 µM and the kcat worked out at 4.6 ± 0.3 s⁻¹.

B6: PTP1BF194A: PTP1B1-301 mutant with mutation in the α3 helix (protein, UniProt P18031 1-301, looked up, fragment F194A)
chain: MEMEKEFEQIDKSGSWAAIYQDIRHEASDFPCRVAKLPKNKNRNRYRDVSPFDHSRIKLHQEDNDYINASLIKMEEAQRSYILTQGPLPNTCGHFWEMVWEQKSRGVVMLNRVMEKGSLKCAQYWPQKEEKEMIFEDTNLKLTLISEDIKSYYTVRQLELENLTTQETREILHFHYTTWPDFGVPESPASFLNALFKVRESGSLSPEHGPVVVHCSAGIGRSGTFCLADTCLLLMDKRKDPSSVDIKKVLLEMRKFRMGLIQTADQLRFSYLAVIEGAKFIMGDSSVQDQWKELSHEDLEP
As to B6, under setting [1], the Km is 390 ± 50 µM and the kcat was 5.3 ± 0.3 s⁻¹.

B7: PTP1BG283P: PTP1B1-301 mutant with point mutation in the α7 helix (protein, UniProt P18031 1-301, looked up, variant G283P)
chain: MEMEKEFEQIDKSGSWAAIYQDIRHEASDFPCRVAKLPKNKNRNRYRDVSPFDHSRIKLHQEDNDYINASLIKMEEAQRSYILTQGPLPNTCGHFWEMVWEQKSRGVVMLNRVMEKGSLKCAQYWPQKEEKEMIFEDTNLKLTLISEDIKSYYTVRQLELENLTTQETREILHFHYTTWPDFGVPESPASFLNFLFKVRESGSLSPEHGPVVVHCSAGIGRSGTFCLADTCLLLMDKRKDPSSVDIKKVLLEMRKFRMGLIQTADQLRFSYLAVIEGAKFIMPDSSVQDQWKELSHEDLEP
Regarding B7, under setting [1], the Km was 850 ± 70 µM and the kcat worked out at 4.9 ± 0.2 s⁻¹.

B8: PTP1BD298A: PTP1B1-301 mutant with point mutation in the α7 helix (protein, UniProt P18031 1-301, looked up, variant D298A)
chain: MEMEKEFEQIDKSGSWAAIYQDIRHEASDFPCRVAKLPKNKNRNRYRDVSPFDHSRIKLHQEDNDYINASLIKMEEAQRSYILTQGPLPNTCGHFWEMVWEQKSRGVVMLNRVMEKGSLKCAQYWPQKEEKEMIFEDTNLKLTLISEDIKSYYTVRQLELENLTTQETREILHFHYTTWPDFGVPESPASFLNFLFKVRESGSLSPEHGPVVVHCSAGIGRSGTFCLADTCLLLMDKRKDPSSVDIKKVLLEMRKFRMGLIQTADQLRFSYLAVIEGAKFIMGDSSVQDQWKELSHEALEP
Turning to B8, under setting [1], the Km was determined as 480 ± 100 µM and the kcat came out at 6.3 ± 0.4 s⁻¹.

B9: PTP1BF196A: PTP1B1-301 mutant with mutation in the α3 helix (protein, UniProt P18031 1-301, looked up, variant F196A)
chain: MEMEKEFEQIDKSGSWAAIYQDIRHEASDFPCRVAKLPKNKNRNRYRDVSPFDHSRIKLHQEDNDYINASLIKMEEAQRSYILTQGPLPNTCGHFWEMVWEQKSRGVVMLNRVMEKGSLKCAQYWPQKEEKEMIFEDTNLKLTLISEDIKSYYTVRQLELENLTTQETREILHFHYTTWPDFGVPESPASFLNFLAKVRESGSLSPEHGPVVVHCSAGIGRSGTFCLADTCLLLMDKRKDPSSVDIKKVLLEMRKFRMGLIQTADQLRFSYLAVIEGAKFIMGDSSVQDQWKELSHEDLEP
On to B9, for which, under setting [1], the Km turned out to be 320 ± 40 µM and the kcat amounted to 4.2 ± 0.2 s⁻¹.

B10: PTP1BY152F: PTP1B1-301 mutant with mutation in the L11 loop (protein, UniProt P18031 1-301, looked up, variant Y152F)
chain: MEMEKEFEQIDKSGSWAAIYQDIRHEASDFPCRVAKLPKNKNRNRYRDVSPFDHSRIKLHQEDNDYINASLIKMEEAQRSYILTQGPLPNTCGHFWEMVWEQKSRGVVMLNRVMEKGSLKCAQYWPQKEEKEMIFEDTNLKLTLISEDIKSFYTVRQLELENLTTQETREILHFHYTTWPDFGVPESPASFLNFLFKVRESGSLSPEHGPVVVHCSAGIGRSGTFCLADTCLLLMDKRKDPSSVDIKKVLLEMRKFRMGLIQTADQLRFSYLAVIEGAKFIMGDSSVQDQWKELSHEDLEP
Turning to B10, under setting [2], the Km was found to be 950 ± 40 µM and the catalytic constant (kcat) amounted to 3.4 ± 0.1 s⁻¹.

B11: PTP1BL294A: PTP1B1-301 mutant with point mutation in the α7 helix (protein, UniProt P18031 1-301, looked up, variant L294A)
chain: MEMEKEFEQIDKSGSWAAIYQDIRHEASDFPCRVAKLPKNKNRNRYRDVSPFDHSRIKLHQEDNDYINASLIKMEEAQRSYILTQGPLPNTCGHFWEMVWEQKSRGVVMLNRVMEKGSLKCAQYWPQKEEKEMIFEDTNLKLTLISEDIKSYYTVRQLELENLTTQETREILHFHYTTWPDFGVPESPASFLNFLFKVRESGSLSPEHGPVVVHCSAGIGRSGTFCLADTCLLLMDKRKDPSSVDIKKVLLEMRKFRMGLIQTADQLRFSYLAVIEGAKFIMGDSSVQDQWKEASHEDLEP
Consider B11, for which, under setting [1], the Km was 730 ± 50 µM and the kcat was 5.1 ± 0.1 s⁻¹.

The record behind these values is US20160046684A1, “Methods and compositions for treatment of PTP1B-related diseases” (BROWN UNIVERSITY, priority 2014, published 2016).
